Patent publication US20240279618A1, “RECEPTOR TYROSINE KINASE AGONIST, COMPOSITION FOR CELL CULTURE MEDIUM, AND […] MAINTENANCE COMPOSITION” (SEKISUI CHEMICAL CO., LTD., priority 2021, published 2024)

T1: FGFR1-DIII (Homo sapiens, UniProt P11362)
T1 construct: The FGFR1 extracellular domain has DII and DIII domains; made in house; host or cells: AAVpro293T cells
T1 sequence (P11362 255-357 limits assumed): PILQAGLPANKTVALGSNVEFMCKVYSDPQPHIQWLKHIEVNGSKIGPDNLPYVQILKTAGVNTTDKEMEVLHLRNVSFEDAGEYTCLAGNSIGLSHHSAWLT

T2: FGFR1-DII (Homo sapiens, UniProt P11362)
T2 construct: The FGFR1 extracellular domain has DII and DIII domains; made in house; host or cells: AAVpro293T cells
T2 sequence (P11362 158-246 limits assumed): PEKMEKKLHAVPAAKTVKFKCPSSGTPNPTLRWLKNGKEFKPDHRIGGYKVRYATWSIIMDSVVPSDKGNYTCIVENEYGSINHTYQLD


Legend:
FGFR1-DIII = molecular target: T1, FGFR1-DIII; assay: Binding activity by biolayer interference (BLI) to FGFR1-DIII; settings: 1:1 binding model
Protocol: (§1) The FGFR1 extracellular domain has DII and DIII domains. Each of an FGFR1 extracellular domains (hereinafter may be abbreviated as “FGFR1-DIIDIII”, “FGFR1-DII”, or “FGFR1-DIII”) was expressed using AAVpro293T cells as follows, these domains were purified, and an affinity measurement test with VHH Clone #1 was performed by a biolayer interference (BLI) method.
(§2) The binding activities of FGFR1-DIIDIII, FGFR1-DII, and FGFR1-DIII to VHH Clone #1 were measured by a biolayer interference method (hereinafter sometimes abbreviated as “BLI”). In BLI, using Octet 384 (manufactured by Fortebio), VHH Clone #1 diluted with a kinetics buffer (0.05% Tween20-containing PBS, pH 7.4) was immobilized on an Anti-Penta-HIS (HIS1K, manufactured by Fortebio) sensor chip, and bound to FGFR1-DIIDIII, FGFR1-DII, and FGFR1-DIII, which had been adjusted from 100 nM in 2-fold serial dilutions, and the dissociation rate was measured.
(§3) In the preparation for measurement, a tip of the sensor chip was immersed in 200 μL of the kinetics buffer for 10 minutes in order to hydrate the sensor chip. […]
(§4) After completion of the measurements, the measured value of a Reference (only the kinetics buffer) was subtracted from the actual measurement value, and Global Fitting was performed using a 1:1 binding model using Octet software to calculate the binding activity (FIG. 22).

FGFR1-DIIDIII = assay: Binding activity by biolayer interference (BLI) to FGFR1-DIIDIII; set-up: species or system human; settings: 1:1 binding model
Protocol: as §1, §2, §3, §4

FGFR2-Fc = assay: SPR affinity of VHH (monomer) for FGFR2-Fc; assay type: binding, human; settings: same manner as Example 5
Protocol: The binding activity of VHH Clone #1 or VHH Clone #2 immobilized on Series S Sensor Chip CAP (manufactured by Cytiva) with respect to FGFR1-Fc was measured using Biacore (registered trademark) T200 (manufactured by Cytiva). Measurement was performed by CAP Single-cycle Kinetics. The temperature was set to 25° C. As a running buffer, 10 mM HEPES (pH 7.4) (Cytiva) including HBS-EP+(150 mM NaCl, 0.5 mM EDTA, and 0.05% surfactant P20) was used. The measurement order for each run is as follows.
2) Measurement of binding activity: The flow rate was set to 30 μL/mL, and VHH Clone #1 or VHH Clone #2 each diluted to 1.85 nM, 5.56 nM, 16.67 nM, or 50 nM, using a running buffer, was allowed to have an association time set to 120 seconds for binding and a dissociation time set to 600 seconds for interaction.
3) Regeneration of sensor chip surface: The flow rate was set to 10 μL/mL, a solution in which Reaneration stock 1 and Regeneration stock 2 (manufactured by Cytiva) were mixed at the ratio of 3:1 was added thereto for 120 seconds to extract the immobilized VHH. Next, analysis was performed with a 1:1 binding model using Biacore T200 Evaluation (software version 2.0, manufactured by Cytiva), and the binding activity was calculated.
The binding activity of VHH Clone #1 to FGFR2-Fc, FGFR3-Fc, or FGFR4-Fc was measured in the same manner as in Example 5.

FGFR1-DII = molecular target: T2, FGFR1-DII; assay: Binding activity by biolayer interference (BLI) to FGFR1-DII; settings: Octet, VHH immobilized
Protocol: as §1, §2, §3, §4

[1] = test system: phospho-p44/42 MAPK (Erk½); assay: Agonist activity by Western blotting in NIH3T3 cells; assay type: cell-based, mouse; settings: VHH 100 nM, 30 minutes
Protocol: In order to verify the agonist activity for VHH-C(represented by #1_C in the drawing), #1-L4-#1, and #1_Fc, which were obtained in Examples above, the measurement was performed as described below using Western blotting for a change in expression level of Phospho-p44/42 MAPK (Erk½). Furthermore, a basic fibroblast growth factor (bFGF; manufactured by Fujifilm Wako Pure Chemical Corporation) was used as a positive control.
As NIH3T3, those described in Example 7 were used. NIH3T3 cells were seeded on a 6-well plate for cell culture at 2× 10^5 cells/well, and culture was performed overnight (37° C., in a 5% CO2 incubator, with light shielded). After washing with a serum-free medium, bFGF (final concentration: 10 ng/mL) or VHH (final concentration: 100 nM) diluted with the serum-free medium was added thereto, and normal culture was performed for 30 minutes. Thereafter, the well was washed with ice-cooled PBS, and the cells were peeled off with a cell scraper, transferred to a tube, and centrifuged at 300×g for 5 minutes at 4° C. to recover the cells. Thereafter, the cells were solubilized with a phosphatase inhibitor-containing RIPA buffer and left to stand on ice for 30 minutes. After the solubilization reaction, centrifugation was performed at 12,000×g for 15 minutes at 4° C. to recover the supernatant. […]

FGFR1-DIIDIII, sequence (P11362 158-357 limits assumed): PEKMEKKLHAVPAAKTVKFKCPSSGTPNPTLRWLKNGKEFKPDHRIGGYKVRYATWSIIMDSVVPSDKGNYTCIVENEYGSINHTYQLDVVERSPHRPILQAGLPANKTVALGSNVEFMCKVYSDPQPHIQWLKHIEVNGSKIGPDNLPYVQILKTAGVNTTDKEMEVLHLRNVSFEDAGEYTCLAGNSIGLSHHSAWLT

| Koff (FGFR1-DIII) [s⁻¹] | Kon (FGFR1-DIII) [M/s] | Koff (FGFR1-DIIDIII) [s⁻¹] | Kon (FGFR1-DIIDIII) [M/s] | kd (FGFR2-Fc) [s⁻¹] | KD (M) (FGFR1-DII) | Molecule | ka (FGFR2-Fc) [M⁻¹ s⁻¹] | agonist activity (expression of phosphorylated p44/42 MAPK (Erk½)) [1] |
| --- | --- | --- | --- | --- | --- | --- | --- | --- |
| 0.000351 | 298000 | 0.000141 | 289000 | 0.776 | No Binding | VHH Clone #1: alpaca-derived VHH single-domain antibody (monomer) binding FGFR1, amino acid sequence SEQ ID NO: 17 (protein, VHH_Clone_#1) VHH: QLQLVESGGGSVQAGGSLRLSCAASRSLSRFNVWTWYRQAPVKQRELVASITKSGDTNYAESVKGRFIISRDDDKNTVYLQMNNLKSEDTGIYYCAGSYYSGSYLYPSPGGFSVWGQGTQVTVSS | 484000 | – |
| – | – | – | – | – | – | #1-L4-#1: dimer of VHH #1 with linker L4 (GSEGKSSGSGSESKST), SEQ ID NO: 23 (protein, #1-L4-#1) VHH: QLQLVESGGGSVQAGGSLRLSCAASRSLSRFNVWTWYRQAPVKQRELVASITKSGDTNYAESVKGRFIISRDDDKNTVYLQMNNLKSEDTGIYYCAGSYYSGSYLYPSPGGFSVWGQGTQVTVSSGSEGKSSGSGSESKSTQLQLVESGGGSVQAGGSLRLSCAASRSLSRFNVWTWYRQAPVKQRELVASITKSGDTNYAESVKGRFIISRDDDKNTVYLQMNNLKSEDTGIYYCAGSYYSGSYLYPSPGGFSVWGQGTQVTVSS | – | exhibit an agonist activity |
